Laboratory results taken from the DeepSol protein solubility set.

Test: soluble on expression in E. coli; label from the status in PepcDB or PDB records
For “MGSDKIHHHHHHMDDITPSDIQAQAIAAIRDWFHSRTDEQQVFRLFGFAGTGKSTVLKFALDDLGLSPHAEDRPGVVTATFTGKAALVLRRKGTPARTIHSLIYSVIEATDEEIEEAGKRITQAELNARGLIGFDRTAAEAAIEAMRQTLRDMKKPRFALNPDSPAASAKLIVLDEVSMVGDEMARDLMSFERPILVLGDPGQLPPIKGEGAFTQAAPDIMLTEIHRQAAESAIIRLATMAREGQPIGFGQYDDHAWKMRMADVTPQQALRGGQVICGRNTTRFQLNNALRRAAGFGGSYLPTGADEKVICLKNQNDLGLINGMFLTLADIVDEGSVYFSATVTDEVGTPIGPPAKDGKPGRLMLYKGHFEDHVALDPHRHDRDWRDKKKLTEATFGWAITCHKAQGSQWENVIVWDDGLGRTEQDRRRWLYTAITRAERGLVILA”, the “soluble on expression in E. coli” value was “not soluble”.
For “MGSDKIHHHHHHMDFFQSKFLYGKKQSQFGIFRMPRNTTNCPVVVTIHGGFWKAEYGLEEIVPLDEDLVRRGYATWNVEYRRIGENGGGWPGTFSDVIDAVNYLAFLKEDFPLDLSRVVILGHSAGGHLALWLASRWNTKQADQMENVLHTSIKAIISLAGVSNLEEMWRIESKGKTSNNVSSFLGGTPEEASDRYHLASPYELLPLHVRQILVHGGSDQEVPLDLTLGYYKKAIRLADDVGLISDSRSDHFDLIDPFSSIWLSSADSLKNIINS”, the “soluble on expression in E. coli” value was “not soluble”.
With “MGSDKIHHHHHHMDFLDFEKVFSFYSKATKKGFSPFFVPALEKAEEPAGNFFLDRKGNLFSIREDFTKTVLNHRKRYSPDSQIKVWYADFVYRYSGSDLVAEYQLGLEKVPRNSLDDSLEVLEIIVESASEFFEGPVIVEIGHTGVYEDLLKEIPKDLHEKVLNLIDTKNLAEIEFLSHMKKIDLSRVEKIIEDSIYRRSPEHLKTMDLPLSVREDLLSASSFLQEKFPTVSVEIDLTLARTIEEYCGLIFTIYDTSSSRLVAAGGEYTVNGEKGVGGSIFLEGKTC” the “soluble on expression in E. coli” value was “not soluble”.
For “MGSDKIHHHHHHMDFWKCPHCGFVVSKTHQEMTQDQWSQLNSSWHHNFENNRESRTTNQPPYADQALVLAILKENDILDLDDGLDYAAGYGTFSKCLKKYFNIGIRIFDRYVHSSDEGMRYVAQKELSRYKLVINSAMFEHVLNRHALDEVNGLVKDDGVLMLHTVVCERIPKDPGWFYIDTMVHTALHTNKSMSILMDQWGYGASIYSPQAKSWFLFKRDNPLIDDLEAKVAGINHELQTTYLHYKRGFVDYWKGF”, the “soluble on expression in E. coli” value was “not soluble”.
In the case of “MGSDKIHHHHHHMDIIREITPLSEKDCFYIVDRRKTEFTYPIHCHSEYELNFIEHAPGVRRVVGDSAEVIGEYELVLITGKELEHVWEQNACKSPLIHEITIQFSPDLFGKNLLEKNQFNSIRKMLEKAQCGISFPMSSILKVYHLLEKLVSEEQSFYAVINFLTILYELSVEENYKVLASSSFAKITDIHSESRRIQKVQNYINERYQQDIRLNQLAELVGMAPSAFSRFFKLRTGKTLSDYITDIRIGYAARMLVDTQRSIAEICYDCGFNNLSNFNRIFKKKKNCSPKEFRDNYKKTKIIV”, the “soluble on expression in E. coli” value is reported as “not soluble”.
With “MGSDKIHHHHHHMDITPFLDKKSKTPLYEQLYTFFKQEISHARITKGTRLPSKRRLSSLLDVSTATIERAYEQLTAEGYVKSKPKIGWFAAEVEPGFPTAPDHFQQSVQPGLHQKNAPAIDFHQGSVDPTLFPFNAWRKSIVKSLDRYSGSFHTSGDPQGEYELRHMIARFVRLSRGVNCEPGQIIIGAGTTVLLQNLCLSLKPGTKIGFEEPGFHRSRRMFEANHMDVTPICSDAEGVLPDELYRQNPYLMYTTPSHQFPIGTIMTITRRQELLAWAAETNSFIIEDDYDGEFRYSGHPIPSLQGLDPNGRVIYLGTFSKSLLPSLRLSFMIVPPELMEPIQNNVQLMKQTVSAHSQLALADFIETGEWQKHINRMRSLYRKKHAVLLEAIRSELGNTVEILGKNSGLHILLRLLFPASEEEAIQAAADHGVTLYPVSPSYIEQTPFTSVLIGYGGLSEEDIRLGIQKLKTAWAPLISSY” the “soluble on expression in E. coli” value was “not soluble”.
With “MGSDKIHHHHHHMDLLELKAFVFAVQTGSITQAAFQLGRVQSSVSLRIKQLETELGVELLSRDRGGVRTTARGQILYDYATRILALAQEAKGEVMSPNTGEIVRLGTIETISPDCIDSLVRLLSGFDGMGVDVYVDGALSLVESLREGRIHAAIVGAGFAPPECIRIPLYGEAMVLISSLKYPRIDLVNQIANEIFLVCKKESACSRHLAMLFMEGGFQPARISECGSFSILMSSVVRGMGIALVPLSAVLGSAHEKQVLIHPLSGHFSTFQVEFVCPQPKGRPILERLIEKISQEFVGQKPN” the “soluble on expression in E. coli” value was “not soluble”.
With “MGSDKIHHHHHHMDNDSTPRGTVCVTGATGYVGGRLVPRLLDHGWRVRALVRTPAKLLCRPWARHPRLDIIRGDLDDACSLVPALEGCDAVFYLVHSMNPHVTGRDTFAKADRAAASNMVRACDEARPGRIIYLSGLVPEGEELSPHLRSRAEVADILARGETPLTVLRAAQILGSGSASFEMVRYLVDRLPVMLTPRWVHSLCQPIAISNVLGYLEGCLDHPETMGQTYDIGGPDILSYRELFDIFAEVAQLRRRTIIPVPVLSPELSAHWINLVTPIPKALATPLIQGLRNRVVCADDRIRDIIPQRLLSCREAIGKALDRVREQSVPTCWTDAGRPDMPEWMTCGDASYAGGDLLECAYAIQVEAPPETVWKPVSAIGGETGWYHGDLLWRLRGMLDKLVGGPGLRRGRRHPTDIGVGDALDFWRVLDVRPGERLLLLAEMKVPGDALLEFRLAPTATGGTELWMLSWFLPRGLAGLAYWWALYPLHKGLFKGMLCGLAAATGAPVSREPWALPPRREFACALPLTDASAPGRRDTTAQ” the “soluble on expression in E. coli” value was “not soluble”.
In the case of “MGSDKIHHHHHHMDPAPSLGCSLKDVKWSSVAVPLDLLVSTYRLPQIARLDNGECVEGLRENDYLLIHSCRQWTTITAHSLEEGHYVIGPKIEIPVHYAGQFKLLEQDRDIKEPVQYFNSVEEVAKAFPERVYVMEDITFNVKVASGECNEDTEVYNITLCTGDELTLMGQAEILYAKTFKEKSRLNTIFKKIGKLNSISKLGKGKMPCLICMNHRTNESISLPFQCKGRFSTRSPLELQMQEGEHTIRNIVEKTRLPVNVTVPSPPPRNPYDLHFIREGHRYKFVNIQTKTVVVCCVLRNNKILPMHFPLHLTVPKFSLPEHLVKGESWPETLVHHWLGICQEQFDIDEYSRAVRDVKTDWNEECK”, the “soluble on expression in E. coli” value is reported as “not soluble”.
For “MGSDKIHHHHHHMDRQKTSQTVPAGDADDGDDTSVDEKRSPLILTEQVWRKRPAYSSPLPDDKSITLSRWTIPEQPTPVEFRSDGNEDSHIITYSLRQSSVDFWMEGQRVSNGRVTPHAVLMTGPGQPGRAVFYKVFDSIRMYLPQALLAECHEGAYGRPPNQDIVLSHPHFVADQKVRHLVEALVLVDQTDGAMGRIYVDSIGLAIGARLIALHGERRNPVDRSQGLSAWRLRHVIEYIDAHLSSPIGLAELANVAGLSRMHFARRFREVTGQTPHQYVLRCRIMRAQQLLCSPALSVTDIASALAFKTTAHFSTVFRHIVGESPTQWRKRLR”, the “soluble on expression in E. coli” value was “not soluble”.
In the case of “MGSDKIHHHHHHMDTAKTKPFDEMFLQDEVIRPIYAEYAAWLQDVPHQQLESKRQEAELLFRRVGITFNVYGEDAGAERLIPFDVVPRILSASEWARLSDGAIQRVKALNMFLHDVYHDQEIIKAGIVPSSILANAQYRPEMFGVDVPGGVYAHIAGVDLVRTGENDFYVLEDNLRTPSGVSYMLENRKMMMRLFPELFRRYPVAPVEHYPQVLLNNLRAVAQAGVHEPTVVLLTPGAYNSAYFEHAFIAQQMGIELVEGQDLFVRNNAVYMRTTEGPKRVDVIYRRIDDDFIDPLSFRPDSMLGVPGLLSVYRNGGVTLANAVGTGVADDKDTYIYVPEMIRFYLGEEPILSNVPTYQLSKADDLKYVLDNLAELVVKEVQGSGGYGMLVGPAASKQELEDFRQRILANPANYIAQPTLALSTCPTLVETGIAPRHVDLRPFVLSGKTVSLVPGALCRVALREGSLVVNSSQGGGTKDTWILKD”, the “soluble on expression in E. coli” value is reported as “not soluble”.
For “MGSDKIHHHHHHMDVLQKEIDEVYATHPTAHEALDNGIVEQHQQFVRSLTEVNGGCAVISDLSNRKSYVTVHPWANFLGLTPEEAALSVIDSMDEDCIYRRIHPEDLVEKRLMEYKFFQKTFSMSPGERLKYRGRCRLRMMNEKGVYQYIDNLVQIMQNTPAGNVWLIFCLYSLSADQRPEQGIYATITQMERGEVETLSLSEEHRNILSEREKEILRCIRKGLSSKEIAATLYISVNTVNRHRQNILEKLSVGNSIEACRAAELMKLL”, the “soluble on expression in E. coli” value was “not soluble”.
For “MGSDKIHHHHHHMDYLTTNKIAWDARTRVHLTSDFYDVEGFLSGKISLTEIELNELAVAGKSLLHLQCHFGLDTLSWARMGAKVTGVDLSEVAIAEACKLAQQTQLSAEFICSDVYSVVGKVEPQDIVFTSYGAIVWLPDLTLWAQTIAACLKPGGQFYMAEFHPAQQLFDGYSYFNRGEPDIEQEGTYTENASDDQQTLMCWSHSLSEVINALLQAGLELVFFHEFAFSPYNCFEGLEAQADGRYVLIHQGQQVPLVYSISARKPV”, the “soluble on expression in E. coli” value was “not soluble”.
For “MGSDKIHHHHHHMDYNQTVLSHLQKFWKHHDIKGFTWTLGRIVEELPDFQVFQVIPNHEDEPWVYVSSGIGQFLGQEFFIISPFETPEHIETLAMLASASMHYPDQFQLGKTVNIGRPWVEQSSFRHFLISLPYPYGQELEYMDNVRFFWLLPITQTERLFLNTHSVEELETKFDEAGIDYLDINRASTVWQAG”, the “soluble on expression in E. coli” value was “not soluble”.
In the case of “MGSDKIHHHHHHMEANDLLTLGLGLTAPWRVVDQSLDLSKQPSELRLEVEAARGERYPCPACGALCKAHDFAEFSWRHLNFFQHHCLIKARVPRVRCPEHGLKRVNVPWARPGSGFTLLFEQAVMLLAREMPVNAVARYVGVTDKRIWRVVTHYVLKGMGKLDLSRLCGIGLDETATKRGHHYVTIFVDMDRESRPVVFATPGKGKECLKTFAAYLKGRQGNPENVVEVVCDMSPAFLSAAEATFRNAAVTVDWFHVVQIFTKALDEVRRLEAREVILPKAARWAVLKGLETWRIEEQVAALKELEERGLATATAFRVKELLRWVRKADTRQGARWRATRFFEFARELAGDSVLLAPVRKALNTFEDHLPRILRRWDSLLSNARLEGLNGLFQAARSRARGYRNVTTFITMIYLIGAPITQLLEA”, the “soluble on expression in E. coli” value is reported as “not soluble”.
For “MGSDKIHHHHHHMEDLNSLYYFTQVVEHGGFAPAGRALDMPKSKLSRRIADLEDRLGVRLLNRTSRHCSLTEIGQAYYNRCLAMRVEAEGAAEIIERNRSEPRGLVRISCPTTLLNSWVGPMLTRYMLKYPQVELFIESTNRRVDLLHEGFDIALRVRFPPLENTDMVMKVLSNSTQCLVGQPQYLAQLPKGFDPQLLGTLPSVHWGSAQREYQWELFQGEDNSRSIVIPHTPRMVTDDLFALRHFVVAGVGIAHLPRVAVREDLAAGRLVELIPDWHPRCGIVHAIFPSRRGLLPSVRALIDHLAEEFAISDMA”, the “soluble on expression in E. coli” value was “not soluble”.
In the case of “MGSDKIHHHHHHMEEFVFFIEGNVNHPLTIDPTVWIFDERKVDLTTYFQELATKEDEMTAYKKAISKQWDKEITKGSEPPRPDTNGNVIKYEKQKLIHGSFGMPFMPFLKNSEPDSDAKTVTVVCADGNEHSFPIDEAAQFILGFAKNGSPLREDGPVHVYFGDGSNESTPIINVIRFSVS”, the “soluble on expression in E. coli” value is reported as “not soluble”.
For “MGSDKIHHHHHHMEELRSGSSVCRVSRRGAFVSSLRISNMEILKRSSDRYATHGGMAILIPYADIVSDGTYTWHGRRYQLPRNAGYEGNFTDSIHGLVKSAYFSIIYKDVDSILLKYALERSGYPSRLNIYVNYAVQHDSLGTVISVENTGNNEAPLVCGSHPYFLYRDFWFIKFSNSAVRLFSGGDLSLRKDESVNFLTKKIEGYYDDSFYSDGMILLVSSDRMIELDRRSMPYFEVYDGKYAERRSLAVEPMTGAPNAYNNKIGLIDLKPGETFLCGFDIRVASI”, the “soluble on expression in E. coli” value was “not soluble”.
